Results on two molecules are retold here after patent publication US20100291097A1.

The target of one assay is Aβ1-42 peptide. The assay is described as follows: cell-based or functional assay.
For assay [1], the target named is Peptide 1 of the Aβ1-42 overlapping peptide library. The assay can be described thus: peptide library ELISA, Ab 10 µg/ml.
Assay [2] concerns the target Peptide 10 of the Aβ1-42 overlapping peptide library. The assay can be described thus: peptide library ELISA, Ab 10 µg/ml.
In assay [3] the target is Peptide 11 of the Aβ1-42 overlapping peptide library. The assay is described as follows: peptide library ELISA, Ab 10 µg/ml. For orientation: An ELISA detects its analyte on a solid surface through an enzyme-linked reagent.
In assay [4] the target is Peptide 12 of the Aβ1-42 overlapping peptide library. The assay can be described thus: peptide library ELISA, Ab 10 µg/ml.
Assay [5] concerns the target Peptide 13 of the Aβ1-42 overlapping peptide library. The assay is described as follows: peptide library ELISA, Ab 10 µg/ml.
Assay [6] has as its target Peptide 14 of the Aβ1-42 overlapping peptide library. The assay can be described thus: peptide library ELISA, Ab 10 µg/ml.
Assay [7] has as its target Peptide 15 of the Aβ1-42 overlapping peptide library. The assay can be described thus: peptide library ELISA, Ab 10 µg/ml.
The target in assay [8] is Peptide 16 of the Aβ1-42 overlapping peptide library. The assay is described as follows: peptide library ELISA, Ab 10 µg/ml.
For assay [9], the target named is Peptide 17 of the Aβ1-42 overlapping peptide library. The assay can be described thus: peptide library ELISA, Ab 10 µg/ml.
Assay [10] concerns the target Peptide 18 of the Aβ1-42 overlapping peptide library. The assay can be described thus: peptide library ELISA, Ab 10 µg/ml.
Assay [11] deals with Peptide 19 of the Aβ1-42 overlapping peptide library. The assay is described as follows: peptide library ELISA, Ab 10 µg/ml.
In assay [12] the target is Peptide 2 of the Aβ1-42 overlapping peptide library. The assay is described as follows: peptide library ELISA, Ab 10 µg/ml.
Assay [13] concerns the target Peptide 20 of the Aβ1-42 overlapping peptide library. The assay is described as follows: peptide library ELISA, Ab 10 µg/ml.
Assay [14] deals with Peptide 21 of the Aβ1-42 overlapping peptide library. The assay can be described thus: peptide library ELISA, Ab 10 µg/ml.
Assay [15] has as its target Peptide 22 of the Aβ1-42 overlapping peptide library. The assay is described as follows: peptide library ELISA, Ab 10 µg/ml.
For assay [16], the target named is Peptide 23 of the Aβ1-42 overlapping peptide library. The assay is described as follows: peptide library ELISA, Ab 10 µg/ml.
The target in assay [17] is Peptide 24 of the Aβ1-42 overlapping peptide library. The assay is described as follows: peptide library ELISA, Ab 10 µg/ml.
The target of assay [18] is Peptide 25 of the Aβ1-42 overlapping peptide library. The assay is described as follows: peptide library ELISA, Ab 10 µg/ml.
The target in assay [19] is Peptide 26 of the Aβ1-42 overlapping peptide library. The assay is described as follows: peptide library ELISA, Ab 10 µg/ml.
Assay [20] concerns the target Peptide 27 of the Aβ1-42 overlapping peptide library. The assay can be described thus: peptide library ELISA, Ab 10 µg/ml.
Assay [21] concerns the target Peptide 28 of the Aβ1-42 overlapping peptide library. The assay can be described thus: peptide library ELISA, Ab 10 µg/ml.
Assay [22] deals with Peptide 29 of the Aβ1-42 overlapping peptide library. The assay can be described thus: peptide library ELISA, Ab 10 µg/ml.
The target in assay [23] is Peptide 3 of the Aβ1-42 overlapping peptide library. The assay can be described thus: peptide library ELISA, Ab 10 µg/ml.
The target of assay [24] is Peptide 30 of the Aβ1-42 overlapping peptide library. The assay is described as follows: peptide library ELISA, Ab 10 µg/ml.
For assay [25], the target named is Peptide 31 of the Aβ1-42 overlapping peptide library. The assay can be described thus: peptide library ELISA, Ab 10 µg/ml.
The target in assay [26] is Peptide 32 of the Aβ1-42 overlapping peptide library. The assay can be described thus: peptide library ELISA, Ab 10 µg/ml.
The target in assay [27] is Peptide 33 of the Aβ1-42 overlapping peptide library. The assay is described as follows: peptide library ELISA, Ab 10 µg/ml.
For assay [28], the target named is Peptide 4 of the Aβ1-42 overlapping peptide library. The assay is described as follows: peptide library ELISA, Ab 10 µg/ml.
The target of assay [29] is Peptide 5 of the Aβ1-42 overlapping peptide library. The assay is described as follows: peptide library ELISA, Ab 10 µg/ml.
In assay [30] the target is Peptide 6 of the Aβ1-42 overlapping peptide library. The assay can be described thus: peptide library ELISA, Ab 10 µg/ml.
Assay [31] deals with Peptide 7 of the Aβ1-42 overlapping peptide library. The assay can be described thus: peptide library ELISA, Ab 10 µg/ml.
Assay [32] addresses Peptide 8 of the Aβ1-42 overlapping peptide library. The assay can be described thus: peptide library ELISA, Ab 10 µg/ml.
Assay [33] deals with Peptide 9 of the Aβ1-42 overlapping peptide library. The assay can be described thus: peptide library ELISA, Ab 10 µg/ml.
For assay [34], the target named is Aβ1-28 peptide, biotinylated (Anaspec). The assay can be described thus: ELISA, biotin-peptide on streptavidin, Ab 10 µg/ml; mean of 2, background subtracted. The conditions noted are these: remark: other sources report otherwise.
Sequence of Aβ1-28 peptide, biotinylated (Anaspec) (chain, as listed by the source): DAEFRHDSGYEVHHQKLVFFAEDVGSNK

Sequence of Aβ1-42 peptide (peptide, as listed by the source): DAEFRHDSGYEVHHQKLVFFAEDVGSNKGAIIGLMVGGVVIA

B1: ACI-24-Ab-3 monoclonal antibody (antibody, IgG1, V domains shown)
VH: QVQLQQSGAELARPGASVKLSCKASGYTFTSYGIRWVKQRTGQGLEWIGEICPRSGNTYYNEKFKGKATVTADKSSSTAYMELRSLTSEDSAVYFCARSIYYGRPYYFDYWGQGTTLTVSS
VL: DIVMTQSQLFMSTSVGDRVSVTCKASQNVATNVAWYQQKPGQSPKALIYSASYRYSGVPDRFTGSGSGTDFTLTISNVQSEDLAEYFCQQYNSYPLTFGAGTKLELK
Turning to B1, the disaggregation of pre-aggregated Aβ1-42, thioflavin T assay, molar ratio 1:10 in the assay with Aβ1-42 peptide turned out to be 20%. The disaggregation of pre-aggregated Aβ1-42, thioflavin T assay, molar ratio 1:100 in the assay with Aβ1-42 peptide stood at 12%. Further, the inhibition of Aβ1-42 aggregation, thioflavin T assay, antibody to Aβ1-42 molar ratio 1:10 in the assay with Aβ1-42 peptide stood at 51%. For the same molecule, the inhibition of Aβ1-42 aggregation, thioflavin T assay, antibody to Aβ1-42 molar ratio 1:100 with Aβ1-42 peptide was 26%. Besides, the O.D. in assay [1] came to 0.32 O.D; in assay [2], 0.2 O.D; in [3], 0.23 O.D; in assay [4], 0.34 O.D; in assay [5], 0.23 O.D; in [6] it was 0.3 O.D. Moreover, the O.D. in assay [7] stood at 0.32 O.D; in [8] it was 0.34 O.D; in assay [9] it was 0.31 O.D; in assay [10], 0.3 O.D; in [11], 0.3 O.D; in [12], 0.26 O.D. For the same molecule, the O.D. in assay [13] was found to be 0.22 O.D; in assay [14], 0.21 O.D; in assay [15], 0.21 O.D; in assay [16], 0.2 O.D; in [17], 0.18 O.D; in assay [18], 0.23 O.D. Moreover, the O.D. in [19] came to 0.25 O.D; in assay [20], 0.26 O.D; in assay [21] it was 0.26 O.D; in assay [22], 0.27 O.D; in assay [23], 0.37 O.D; in [24], 0.29 O.D. Further, the O.D. amounted to 0.31 O.D in assay [25]; 0.31 O.D in [26]; 0.26 O.D in assay [27]; 0.36 O.D in assay [28]; 0.32 O.D in assay [29]; 0.34 O.D in assay [30]. The O.D. amounted to 0.3 O.D in [31], 0.21 O.D in [32] and 0.19 O.D in [33].

B2: ACI-11-Ab-9 monoclonal antibody (antibody, V domains shown)
VL: QAVVTQESALTTSPGGTVILTCRSSTGAVTTSNYANWVQEKPDHLFTGLIGGTSNRAPGVPVRFSGSLIGDKAALTITGAQTEDDAMYFCALWYSTHYVFGGGTKVTVL
VH: QVQLQQSDAELVKPGASVKISCKVSGYTFTDHTIHWMKQRPEQGLEWIGYIYPRDGSTKYNEKFKGKATLTADKSSSTAYMQLNSLTSEDSAVYFCARDYGYAFDYWGQGTTLTVSS
modifications: here or on the partner: biotinylated (position not given)
On to B2, for which the O.D. in assay [34] came out at 0.53 O.D.
